In general, Kd refers to the equilibrium constant for the complex coming apart. Read a high Kd as weaker binding.

For one data set, the target named is full-length GST–MLV IN(1–408) (murine leukemia virus (MLV)). As to the kind of experiment: pull-down.
Chain of full-length GST–MLV IN(1–408) (murine leukemia virus (MLV)) (P03355 1331-1738 limits assumed): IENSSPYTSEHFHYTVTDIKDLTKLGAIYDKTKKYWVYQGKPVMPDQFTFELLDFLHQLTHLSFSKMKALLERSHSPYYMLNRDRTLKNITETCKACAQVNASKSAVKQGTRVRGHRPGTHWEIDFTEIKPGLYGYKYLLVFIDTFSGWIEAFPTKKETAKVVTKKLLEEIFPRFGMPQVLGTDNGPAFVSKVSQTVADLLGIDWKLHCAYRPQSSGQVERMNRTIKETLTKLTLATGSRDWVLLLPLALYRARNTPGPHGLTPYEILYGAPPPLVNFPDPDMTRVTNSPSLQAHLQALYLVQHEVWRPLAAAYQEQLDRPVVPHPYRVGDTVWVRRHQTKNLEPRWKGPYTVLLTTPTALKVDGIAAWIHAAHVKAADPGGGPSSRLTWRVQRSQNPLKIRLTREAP
Conditions: not given
In the case of “6xHis–Brd4 B/BID(462–599) (from UniProt O60885 462-599) (domain or fragment)”, the Kd is > 2000 nM.

In turn, “6xHis–Brd4 ET(600–678) (from UniProt O60885 600-678) (domain or fragment)” came in with a Kd of 205 nM.

Turning to “6xHis–Brd4 ET/SEED(600–720) (from UniProt O60885 600-720) (domain or fragment)”, the Kd was found to be 206 nM.

The substance “6xHis–Brd4(1–720) (from UniProt O60885 1-720) (natural protein)” showed a Kd of 58.4 nM.

For the substance “6xHis–cBrd4(462–720) (from UniProt O60885 462-720) (domain or fragment)”, the Kd turned out to be 77.3 nM.

“6xHis–nBrd4(1–461) (from UniProt O60885 1-461) (domain or fragment)”: the Kd was > 2000 nM.

The next data set has as its system 6xHis-Brd4(1-720) (human). Nature of the data set: streptavidin bead pull-down, Coomassie, Hill fit. Conditions: no added Mg2+; DNA pull-down: 50 mM HEPES pH 7.5, 100 mM NaCl, 0.5% NP40, 2 mM BME, 8.3 uM DNA; HTRF: 25 mM Tris pH 7.4, 150 mM NaCl, 2 mM MgCl2, 0.1% NP40, 1 mg/ml BSA ….
For the substance 40-bp SMYD1 DNA, the Kd was 2140 nM.

The record behind these values is article PMC4005663.
